Measured values published in patent US20260234245A1.

Tests used:
[1] = biological target: human L1CAM on the surface of human cancer cell lines (human) (UniProt P32004); assay: flow cytometry on PC-03 cells, against PE-labeled isotype control MOPC-173
[2] = biological target: human L1CAM on the surface of human cancer cell lines (human) (UniProt P32004); assay: flow cytometry on HeLa cells, PE-labeled antibody, mean of triplicates
[3] = biological target: human L1CAM on the surface of human cancer cell lines (human) (UniProt P32004); assay: flow cytometry on HeLa cells, against PE-labeled isotype control MOPC-173
[4] = biological target: human L1CAM on the surface of human cancer cell lines (human) (UniProt P32004); assay: flow cytometry on Panc-1 cells, against PE-labeled isotype control MOPC-173
[5] = biological target: human L1CAM on the surface of human cancer cell lines (human) (UniProt P32004); assay: flow cytometry on Panc-1 cells, PE-labeled antibody, mean of triplicates
[6] = biological target: human L1CAM on the surface of human cancer cell lines (human) (UniProt P32004); assay: flow cytometry on PC-03 cells, PE-labeled antibody, mean of triplicates
[7] = biological target: human L1CAM on the surface of human cancer cell lines (human) (UniProt P32004); assay: flow cytometry on SKOV3 cells, against PE-labeled isotype control MOPC-173
[8] = biological target: human L1CAM on the surface of human cancer cell lines (human) (UniProt P32004); assay: flow cytometry on SKOV3 cells, PE-labeled antibody, mean of triplicates
[9] = biological target: human L1CAM on the surface of human cancer cell lines (human) (UniProt P32004); assay: flow cytometry on PC-03 cells, PE-labeled isotype control (background), mean of triplicates
[10] = biological target: human L1CAM on the surface of human cancer cell lines (human) (UniProt P32004); assay: flow cytometry on Panc-1 cells, PE-labeled isotype control (background), mean of triplicates
[11] = biological target: human L1CAM on the surface of human cancer cell lines (human) (UniProt P32004); assay: flow cytometry on SKOV3 cells, PE-labeled isotype control (background), mean of triplicates
[12] = biological target: human L1CAM on the surface of human cancer cell lines (human) (UniProt P32004); assay: flow cytometry on HeLa cells, PE-labeled isotype control (background), mean of triplicates

Sequence of human L1CAM on the surface of human cancer cell lines (human) (P32004 20-1257): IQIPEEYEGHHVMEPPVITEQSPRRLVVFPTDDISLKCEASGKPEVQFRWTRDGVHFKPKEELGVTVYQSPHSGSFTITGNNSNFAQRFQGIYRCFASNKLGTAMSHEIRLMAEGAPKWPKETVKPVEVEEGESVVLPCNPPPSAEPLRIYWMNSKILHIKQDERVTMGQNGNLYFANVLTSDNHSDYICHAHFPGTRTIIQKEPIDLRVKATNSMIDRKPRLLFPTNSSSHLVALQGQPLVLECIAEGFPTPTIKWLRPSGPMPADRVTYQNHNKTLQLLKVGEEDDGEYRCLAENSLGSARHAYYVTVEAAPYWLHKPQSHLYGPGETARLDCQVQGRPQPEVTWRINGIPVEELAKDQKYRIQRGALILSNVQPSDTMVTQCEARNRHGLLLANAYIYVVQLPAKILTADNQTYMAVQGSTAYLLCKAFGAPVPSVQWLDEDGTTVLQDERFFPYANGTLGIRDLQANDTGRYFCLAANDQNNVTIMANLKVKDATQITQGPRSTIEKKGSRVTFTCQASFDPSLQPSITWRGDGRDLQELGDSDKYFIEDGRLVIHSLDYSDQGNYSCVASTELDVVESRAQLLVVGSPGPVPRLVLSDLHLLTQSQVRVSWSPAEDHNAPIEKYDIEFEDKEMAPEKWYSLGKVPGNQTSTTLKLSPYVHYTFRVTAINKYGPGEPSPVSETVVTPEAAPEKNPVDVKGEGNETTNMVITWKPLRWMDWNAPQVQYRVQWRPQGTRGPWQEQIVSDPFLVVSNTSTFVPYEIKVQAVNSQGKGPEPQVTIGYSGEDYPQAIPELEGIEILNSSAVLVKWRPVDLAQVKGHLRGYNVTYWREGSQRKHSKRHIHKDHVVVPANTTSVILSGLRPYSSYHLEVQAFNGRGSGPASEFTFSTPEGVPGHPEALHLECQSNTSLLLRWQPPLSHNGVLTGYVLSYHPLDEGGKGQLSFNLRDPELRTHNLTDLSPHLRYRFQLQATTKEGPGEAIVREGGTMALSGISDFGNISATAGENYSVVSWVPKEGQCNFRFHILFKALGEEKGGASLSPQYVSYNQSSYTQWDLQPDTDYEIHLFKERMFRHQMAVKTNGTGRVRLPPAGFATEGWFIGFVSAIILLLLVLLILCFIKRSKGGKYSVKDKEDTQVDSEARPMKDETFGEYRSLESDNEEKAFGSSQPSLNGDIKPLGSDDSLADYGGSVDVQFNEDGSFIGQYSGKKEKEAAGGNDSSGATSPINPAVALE

Row | Fold increase in MFI (anti-L1CAM vs isotype) [1] [fold] | MFI anti-L1CAM antibody [2] [MFI] | Fold increase in MFI (anti-L1CAM vs isotype) [3] [fold] | Fold increase in MFI (anti-L1CAM vs isotype) [4] [fold] | MFI anti-L1CAM antibody [5] [MFI] | MFI anti-L1CAM antibody [6] [MFI] | Fold increase in MFI (anti-L1CAM vs isotype) [7] [fold] | MFI anti-L1CAM antibody [8] [MFI] | MFI isotype control antibody [9] [MFI] | MFI isotype control antibody [10] [MFI] | MFI isotype control antibody [11] [MFI] | MFI isotype control antibody [12] [MFI] | Substance
1 | 5 | 1.22e+06 | 133 | 14 | 183000 | 46400 | 173 | 1.5e+06 |  |  |  |  | phycoerythrin (PE)-labeled anti-human L1CAM antibody (clone L1-OV198.5, BioLegend)
2 |  |  |  |  |  |  |  |  | 9420 | 13100 | 8680 | 9140 | PE-labeled mouse IgG2a (κ) (clone MOPC-173, BioLegend) (antibody)
